Laboratory results reported in paper doi:10.1101/2021.11.08.467742 (bioRxiv, 2021).
Positions count from the first letter of the chain named. Names and notes keep the numbering of the source.

B1: Escherichia coli FtsA, full length (natural protein, E. coli, UniProt P0ABH0 1-420, looked up)
chain: MIKATDRKLVVGLEIGTAKVAALVGEVLPDGMVNIIGVGSCPSRGMDKGGVNDLESVVKCVQRAIDQAELMADCQISSVYLALSGKHISCQNEIGMVPISEEEVTQEDVENVVHTAKSVRVRDEHRVLHVIPQEYAIDYQEGIKNPVGLSGVRMQAKVHLITCHNDMAKNIVKAVERCGLKVDQLIFAGLASSYSVLTEDERELGVCVVDIGGGTMDIAVYTGGALRHTKVIPYAGNVVTSDIAYAFGTPPSDAEAIKVRHGCALGSIVGKDESVEVPSVGGRPPRSLQRQTLAEVIEPRYTELLNLVNEEILQLQEKLRQQGVKHHLAAGIVLTGGAAQIEGLAACAQRVFHTQVRIGAPLNITGLTDYAQEPYYSTAVGLLHYGKESHLNGEAEVEKRVTASVGSWIKRLNSWLRKEF
notes: FtsA, Escherichia coli, full-length protein; also called EcFtsA; E. coli FtsA; source: E. coli C41(DE3), purified (HisTrap, chitin resin with intein cleavage, SEC); not shown: intein-CBD-12H, C-terminal, cleaved
B2: Escherichia coli FtsA E124A (FtsN suppressor mutant), full length (natural protein, E. coli, UniProt P0ABH0 1-420, looked up)
chain: B1 chain with E124A
notes: FtsA, Escherichia coli, full-length protein with E124A; also called EcFtsA^E124A; source: E. coli C41(DE3), purified (HisTrap, chitin resin with intein cleavage, SEC); not shown: intein-CBD-12H, C-terminal, cleaved
B3: Escherichia coli FtsA I143L (FtsN suppressor mutant), full length (natural protein, E. coli, UniProt P0ABH0 1-420, looked up)
chain: B1 chain with I143L
notes: FtsA, Escherichia coli, full-length protein with I143L; also called EcFtsA^I143L; source: E. coli C41(DE3), purified (HisTrap, chitin resin with intein cleavage, SEC); not shown: intein-CBD-12H, C-terminal, cleaved
B4: Escherichia coli FtsA G50E (ZipA suppressor and filament architecture mutant), full length (natural protein, E. coli, UniProt P0ABH0 1-420, looked up)
chain: B1 chain with G50E
notes: FtsA, Escherichia coli, full-length protein with G50E; also called EcFtsA^G50E; source: E. coli C41(DE3), purified (HisTrap, chitin resin with intein cleavage, SEC); not shown: intein-CBD-12H, C-terminal, cleaved

Biological target: the molecule itself
Assay: negative stain electron microscopy on supported lipid monolayers; full-length FtsA at 0.1-0.2 mg/ml with 1 mM ATP, without or with FtsN peptide (up to 10-fold molar excess), on E. coli polar lipid monolayers; binding buffer pH 7.7

Binding result, binds:
B1
B2
B3
B4
